PMC12669755

Target: 3xFLAG::mScarlet::WAGO-4 (UniProt O62275)
Assay: in vitro phase separation (condensate partitioning, confocal fluorescence microscopy)

other: condensed / dilute phase mScarlet::WAGO-4 fluorescence ratio (second replicate, n = 36 ROIs, buffer-only negative control ratios in the same panel: WT 1.36, FG* 1.41, parent: 2.45): 2.09
other: condensed / dilute phase mScarlet::WAGO-4 fluorescence ratio (single experiment, n = 32-36 ROIs, buffer-only negative control ratios in the same panel: WT 1.36, FG* 1.32, parent: 3.04): 2.53
Substance: minimal P granules (condensates of PGL-1, PGL-3, GLH-1 and GLH-4 with poly-A+ mRNA), WT GLH-1 and GLH-4 (from UniProt Q9TZQ3;G5EBV6;P34689;O76743) GLH-1(F→A); GLH-4(F→A)
